Laboratory results published in paper PMC12448856, “Decoding the base flipping mechanism of the SET- and RING-associated (SRA) domain of the epigenetic UHRF1 protein”.

T1: UHRF1 SRA domain (human, UniProt Q96T88 408-643)
T1 sequence: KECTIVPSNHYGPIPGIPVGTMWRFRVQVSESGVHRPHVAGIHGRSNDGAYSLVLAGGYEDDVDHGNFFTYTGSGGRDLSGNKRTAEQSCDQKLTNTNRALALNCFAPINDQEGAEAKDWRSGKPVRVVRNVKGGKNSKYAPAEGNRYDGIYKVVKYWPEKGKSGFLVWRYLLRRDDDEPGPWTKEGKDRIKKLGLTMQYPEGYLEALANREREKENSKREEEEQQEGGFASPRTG

B1: NM duplex, unlabelled (dsDNA)
DNA 1: GGGCCCGCAGGG
DNA 2: CCCTGCGGGCCC
B2: HM duplex, unlabelled (dsDNA)
DNA 1: GGGCCCGCAGGG
DNA 2: CCCTGCGGGCCC
modifications: 5mC at position 6 of strand 1

Experiments:
[1] = molecular target: T1, UHRF1 SRA domain; assay: intrinsic Trp fluorescence titration; 1 uM SRA; 20 mM PBS pH 7.5, 50 mM NaCl, 2.5 mM TCEP, 0.05% PEG 20000, 20 C; duplex 1 uM in anisotropy; settings: protein: recombinant; 12 bp duplex
[2] = molecular target: T1, UHRF1 SRA domain; assay: as above; settings: protein: recombinant; 12 bp duplex; remark: listed apart in the source

Row | Binder | Ka [1] | Ka [2]
1 | B1 | 1.43 ± 0.07 10^6 M-1 | –
2 | B2 | – | 8.1 ± 0.2 10^6 M-1
